Results as given in US20240239878A1 (SHANGHAI QILU PHARMACEUTICAL RESEARCH AND DEVELOPMENT CENTRE, published 2024).

T1: human DLL3 on SHP-77 cells (human, UniProt Q9NYJ7 27-618)
T1 construct: also called DLL3-expressing cells (SHP-77)
T1 sequence: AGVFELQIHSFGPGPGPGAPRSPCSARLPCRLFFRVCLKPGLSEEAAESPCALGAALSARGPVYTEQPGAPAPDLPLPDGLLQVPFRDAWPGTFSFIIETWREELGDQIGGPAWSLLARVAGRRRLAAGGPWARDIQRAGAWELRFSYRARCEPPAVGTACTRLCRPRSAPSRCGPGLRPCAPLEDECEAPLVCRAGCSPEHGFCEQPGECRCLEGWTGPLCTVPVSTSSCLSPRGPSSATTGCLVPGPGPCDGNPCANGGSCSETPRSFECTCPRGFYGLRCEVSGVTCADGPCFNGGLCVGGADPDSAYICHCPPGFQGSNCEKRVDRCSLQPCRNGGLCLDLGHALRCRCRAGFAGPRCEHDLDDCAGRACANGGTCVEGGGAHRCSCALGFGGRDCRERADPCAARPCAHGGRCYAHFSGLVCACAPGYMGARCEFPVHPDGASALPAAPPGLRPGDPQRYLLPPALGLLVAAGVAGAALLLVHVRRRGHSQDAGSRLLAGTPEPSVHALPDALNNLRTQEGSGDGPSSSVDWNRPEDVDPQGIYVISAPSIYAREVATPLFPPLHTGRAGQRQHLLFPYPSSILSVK

T2: human DLL3 antigen protein (Kactus Biosystems, Cat. No. DLL-HM103) (human, UniProt Q9NYJ7 27-492)
T2 sequence: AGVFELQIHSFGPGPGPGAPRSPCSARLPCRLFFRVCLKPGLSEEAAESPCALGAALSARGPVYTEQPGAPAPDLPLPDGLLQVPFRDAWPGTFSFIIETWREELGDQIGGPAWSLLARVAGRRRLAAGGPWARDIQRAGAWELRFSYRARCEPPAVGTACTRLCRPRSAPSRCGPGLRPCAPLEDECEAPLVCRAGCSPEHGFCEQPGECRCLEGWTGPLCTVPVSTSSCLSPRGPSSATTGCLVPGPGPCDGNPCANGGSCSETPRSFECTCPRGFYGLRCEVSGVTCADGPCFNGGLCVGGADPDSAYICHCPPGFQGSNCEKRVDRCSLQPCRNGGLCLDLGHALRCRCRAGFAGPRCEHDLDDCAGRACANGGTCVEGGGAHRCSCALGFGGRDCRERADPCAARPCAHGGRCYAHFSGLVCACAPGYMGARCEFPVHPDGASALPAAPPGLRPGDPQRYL


Assays:
[1] = target: T1, human DLL3 on SHP-77 cells; assay: flow cytometry, SHP-77 cells
Procedure: SHP-77 and HEK293-cyno DLL3 cells were cultured. The culture medium for SHP-77 cells were RPMI1640+10% FBS, and the culture medium for HEK293 cyno DLL3 cells were DMEM+10% FBS+200 μg/ml Hygromycin. The cells were cultured in a T75 cell culture flask at a 37° C. 5% CO₂ incubator. When using cells, they are washed with sterile DPBS, digested with 0.25% trypsin EDTA for about 5 minutes, and then stopped with a complete medium.
The digested cells were centrifuged at 1000 rpm for 5 min at room temperature. The supernatant was discarded and the cells were resuspended in 100 μL of 1% BSA (in PBS). The cells were counted and adjusted to a cell density of 1E6/m. The dilute cells were seeded in a 96-well round-bottom culture plate (corning 3799), and centrifuged at 1500 rpm for 5 min at 4° C. The supernatant was discarded and the cells were stored at 4° C. until use. Antibody samples to be tested were diluted with 1% BSA (in PBS) at a starting concentration of 100 nM, downwards by a 10-fold gradient for 7 concentrations. The cells were resuspended with the diluted antibody at 100 μL/well and incubated for 1 hour at 4° C. The cells were centrifuged at 1500 rpm for 5 minutes at 4° C. and the supernatant was discarded. The cells were resuspended and washed with 160 μL of 1% BSA (in PBS), centrifuged at 1500 rpm for 5 minutes at 4° C. The supernatant was discarded. The secondary antibody (goat anti human IgG Fc PE) was diluted 1:200 with 1% BSA (in PBS) according to the manufacturer's instructions and the cells were resuspended with the diluted secondary antibody, 100 μL/well, and incubated for 0.5 h at 4° C. The cells were centrifuged at 1500 rpm for 5 minutes at 4° C. and the supernatant was discarded. The cells were resuspended and washed with 160 μL of 1% BSA (in PBS), centrifuged at 1500 rpm for 5 minutes at 4° C. The supernatant was discarded. The cells were resuspended in 100 μL of 1% BSA (in PBS), and filtered across a 300 mesh gauze. The mean fluorescence intensity of the PE channels was measured by flow cytometry.
The analyzed mean fluorescence intensity was imported into Graphpad to analyze the median-binding concentration (hereinafter referred to as EC50) of antibody and cell and the top mean fluorescence intensity (Top MFI).

[2] = target: T2, human DLL3 antigen protein (Kactus …); assay: SPR (Biacore 8K), antibody captured on anti-human Fc, DLL3 in solution
Procedure: The affinity and kinetic properties of the humanized anti-DLL3 antibody to human DLL3 were analyzed using a Biacore 8K instrument. CM5 chips were activated with EDC and NHS, followed by immobilization of anti-human Fc murine mAb and blocked with ethanolamine.
Human DLL3 was diluted two-fold serially to serial concentrations (100 nM-0.39 nM) and associated for 90 s and dissociated for 600 s at a flow rate of 50 μL/min.
After completion of each cycle of the experiment, the captured antibody was removed together with the antigen by washing with a 3M MgCl₂ solution at a flow rate of 30 μL/min for 30 s to complete the regeneration of the chip. The raw data were analyzed using Biacore Insight Evaluation Software (3.0.12.15655) software and fitted with a (1:1) Langmuir model.

| EC50 [1] | Top MFI [1] | Kd [2] | koff [2] | kon [2] | Binder |
| --- | --- | --- | --- | --- | --- |
| 0.478 nM | 877 MFI | 4.21 nM | 0.000392 s⁻¹ | 93200 M⁻¹ s⁻¹ | DLL3-122 camelid-derived anti-DLL3 chimeric antibody (antibody, human IgG1, V domains shown) VH: QVQLVESGGGSVQAGGSLRLSCTASGDTYRSYCMGWFRKAPGKEREGVADIVSDGSTSYADSVKGRFTISKDNAKNTLYLQMNSLKPEDTAMYYCAVDRGGSGGYCYTGRYDYWGQGTQVTVSS |
| 0.589 nM | 778 MFI | 4.73 nM | 0.000466 s⁻¹ | 98500 M⁻¹ s⁻¹ | hDLL3-122 camelid-derived humanized anti-DLL3 antibody (antibody, V domains shown) VH: EVQLVESGGGLVQPGGSLRLSCAASGDTYRSYCMGWFRQAPGKEREGVADIVSDGSTSYADSVKGRFTISRDNSKNTLYLQMNSLRAEDTAVYYCAVDRGGSGGYCYTGRYDYWGQGTLVTVSS |
| 0.499 nM | 841 MFI | 0.0322 nM | 1.23e-05 s⁻¹ | 382000 M⁻¹ s⁻¹ | DLL3-26 camelid-derived anti-DLL3 chimeric antibody (antibody, human IgG1, V domains shown) VH: QVQLVESGGGSVQAGGSLRLSCAASGDIYSSSYVGWFRQAPGKEREGVAIIYTSGDSTYYANSVKGRFTISQDKAKKTLYLQMNSLKPEDTAMYYCAARFAIDNSNYWGQGTQVTVSS |
| 0.786 nM | 696 MFI | 1.69 nM | 0.000355 s⁻¹ | 210000 M⁻¹ s⁻¹ | hDLL3-26 camelid-derived humanized anti-DLL3 antibody (antibody, V domains shown) VH: EVQLVESGGGLVQPGGSLRLSCAASGDIYSSSYVGWFRQAPGKEREGVAIIYTSGDSTYYADSVKGRFTISRDNSKNTLYLQMNSLRAEDTAVYYCAARFAIDNSNYWGQGTLVTVSS |
| 0.061 nM | 864 MFI | 0.127 nM | 0.000274 s⁻¹ | 2.15e+06 M⁻¹ s⁻¹ | DLL3-3 camelid-derived anti-DLL3 chimeric antibody (antibody, human IgG1, V domains shown) VH: DVQLVESGGGSVQAGGSLKLSCKSPTYTISSGYMGWFRQAPGKEREGVAAIYIGGSTTLYADSVKGRFTISADNAEKTVYLQMNTLKPEDSAMYYCAAQLRPNSAYHPLDGRKYNYWGQGTQVTVSS |
| 0.086 nM | 702 MFI | 0.304 nM | 0.00058 s⁻¹ | 1.91e+06 M⁻¹ s⁻¹ | hDLL3-3-1 camelid-derived humanized anti-DLL3 antibody (antibody, human IgG1, V domains shown) VH: EVQLVESGGGLVQPGGSLRLSCAASTYTISSGYMGWFRQAPGKEREGVAAIYIGGSTTLYADSVKGRFTISRDNSKNTLYLQMNSLRAEDTAVYYCAAQLRPNSAYHPLDGRKYNYWGQGTLVTVSS |
| 0.049 nM | 691 MFI | 0.399 nM | 0.000776 s⁻¹ | 1.95e+06 M⁻¹ s⁻¹ | hDLL3-3-2 camelid-derived humanized anti-DLL3 antibody (antibody, V domains shown) VH: EVQLVESGGGLVQPGGSLRLSCKSPTYTISSGYMGWFRQAPGKEREGVAAIYIGGSTTLYADSVKGRFTISRDNSKNTLYLQMNSLRAEDTAVYYCAAQLRPNSAYHPLDGRKYNYWGQGTLVTVSS |
